The values below come from patent EP4671273A1 (Anaveon AG, dated 2025).

Numbering of substitutions follows the chain as printed. Like-named read-outs stand apart in the source and are kept apart here. Some results are limits rather than exact numbers.

Assay [1] concerns the target T1, rhIL-21-His (AB235875-1001, Abcam) (human, UniProt Q9HBE4 30-162).
T1 construct: bought; not shown: His tag, length and position not described
Description: SPR, Fab on captured rhIL-21-His.

The target of assay [2] is T2, Recombinant hIL-21-Fc (AcroBiosystems) (human, UniProt Q9HBE4 30-162).
T2 construct: bought; also called rhIL-21; not shown: Fc of the bought reagent, not described
T2 sequence (Q9HBE4 30-162): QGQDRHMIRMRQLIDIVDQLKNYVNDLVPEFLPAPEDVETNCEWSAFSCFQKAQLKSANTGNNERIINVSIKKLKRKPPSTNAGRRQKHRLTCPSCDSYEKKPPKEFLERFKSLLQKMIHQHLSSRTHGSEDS
Description: SPR, Fab on captured rhIL-21-Fc.

For assay [3], the target named is T3, cynomolgus PD-1 (#PD1-C52H5, AcroBiosystems) (cynomolgus monkey, UniProt B0LAJ3 25-170).
T3 construct: bought; also called cynomolgus monkey PD-1; not shown: the vendor's tag on the recombinant protein (AcroBiosystems #PD1-C52H5)
T3 sequence (B0LAJ3 entry or part of it limits assumed, form in doubt): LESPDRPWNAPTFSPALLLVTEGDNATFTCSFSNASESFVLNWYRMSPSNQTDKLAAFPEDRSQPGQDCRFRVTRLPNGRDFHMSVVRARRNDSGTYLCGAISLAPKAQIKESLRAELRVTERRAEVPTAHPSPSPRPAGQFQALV
Description: SPR, PD-1 on captured IgG1.

Assay [4] addresses T4, human PD-1 (#PD1-H82E4, AcroBiosystems) (human, UniProt Q15116 25-167).
T4 construct: bought
Kind of assay: SPR, PD-1 on captured IgG1.

The target in assay [5] is T3, cynomolgus PD-1 (#PD1-C52H5, …). Description: SPR, PD-1 on captured IgG1. This is another data set of the same source.
For assay [6], the target named is T4, human PD-1 (#PD1-H82E4, AcroBiosystems). Description: SPR, PD-1 on captured IgG1. This is another data set of the same source.

T4 sequence (Q15116 25-167 limits assumed): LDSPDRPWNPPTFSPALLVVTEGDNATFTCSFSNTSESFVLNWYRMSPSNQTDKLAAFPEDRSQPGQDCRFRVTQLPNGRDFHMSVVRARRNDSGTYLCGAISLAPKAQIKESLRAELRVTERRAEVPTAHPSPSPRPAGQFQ
T1 sequence (Q9HBE4 30-162 limits assumed): as the sequence (Q9HBE4 30-162) above

B1: ZAP122 Fab (Fab, V domains shown)
VH: QVQLQESGPGLVKPSETLSLTCTVSGGSISSDFWGWIRQPPGKGLEWIGYISSRGSTNYNPSLKRRVTISVDTSRNQFSLKLSSVTAADTAVYYCARSAGVTDFDFWGQGTLVTVSS
VL: DIQMTQSPSSVSASVGDRVTITCRASQGISSWLAWYQHKPGKAPKLLIYVASSLQSGVPSRFSGSGSGTDFTLTISSLQPEDFATYYCQQANSFPLTFGGGTKVEIK
notes: Fab; also called ZAP122 wt
With B1, in assay [1], binding was characterised by a dissociation constant (Kd) of 0.313 nM, the koff worked out at 6.91e-05 s⁻¹ and the kon came to 221000 M⁻¹ s⁻¹. In assay [2], the equilibrium dissociation constant (Kd) is less than 0.0265 nM, the off-rate (koff) is less than 1e-05 s⁻¹ and the kon was 377000 M⁻¹ s⁻¹.

B2: MEK904 Fab (Fab, V domains shown)
VH: B1 VH with F33Y, S53Y, R65S, T102A
VL: B1 VL with M4L, N92S
notes: Fab
B2: in assay [1], the Kd was found to be 0.69 nM, the dissociation rate constant (koff) worked out at 0.00015 s⁻¹ and the kon was found to be 210000 M⁻¹ s⁻¹.

B3: ZXI489 Fab (Fab, V domains shown)
VH: B1 VH with F33Y, S53Y, R65S, F106W
VL: B1 VL with M4L, N92S, F94A
notes: Fab
In assay [1], B3 had a dissociation constant Kd of 7.04 nM, an off-rate constant (koff) of 0.00484 s⁻¹ and a kon of 688000 M⁻¹ s⁻¹.

B4: RPD212 Fab (Fab, V domains shown)
VH: B1 VH with F33Y, S53Y, R54S, R65S, F106A
VL: B1 VL with M4L, N92S
notes: Fab
In assay [1], B4 yielded a Kd of 1.1 nM, a dissociation rate constant (koff) of 0.00015 s⁻¹ and an on-rate constant (kon) of 130000 M⁻¹ s⁻¹.

B5: CLJ397 Fab (Fab, V domains shown)
VH: B1 VH with F33Y, S53Y, R65S, T102A, F106A
VL: B1 VL with M4L, N92S
notes: Fab
In assay [1], B5 showed a dissociation constant Kd of 0.55 nM, a koff of 0.00015 s⁻¹ and a kon of 270000 M⁻¹ s⁻¹.

B6: OWS965 Fab (Fab, V domains shown)
VH: B1 VH with F33Y, S53Y, R54S, R65S, T102A, F106A
VL: B1 VL with M4L, N92S
notes: Fab
For B6, in assay [1], the Kd was found to be 2 nM, the koff was found to be 0.00017 s⁻¹ and the kon amounted to 87000 M⁻¹ s⁻¹.

B7: JSQ278 Fab (Fab, V domains shown)
VH: B1 VH with F33Y, S53Y, R65S, F106A
VL: B1 VL with M4L, N92S
notes: Fab
Turning to B7, in assay [1], the Kd was 0.56 nM, the koff was found to be 0.00015 s⁻¹ and the kon turned out to be 270000 M⁻¹ s⁻¹.

B8: PAI969 Fab (Fab, V domains shown)
VH: B1 VH with F33Y, R54S, R65S, T102A, F106A
VL: B1 VL with M4L, N92S
notes: Fab
In assay [1], B8 registered a Kd of 0.98 nM, a koff of 0.00014 s⁻¹ and a kon of 140000 M⁻¹ s⁻¹.

B9: IOO459 Fab (Fab, V domains shown)
VH: B1 VH with F33Y, T102A
VL: B1 VL with F94A
notes: Fab
B9: in assay [1], the equilibrium dissociation constant (Kd) turned out to be 15.6 nM, the koff amounted to 0.0222 s⁻¹ and the kon is 1.42e+06 M⁻¹ s⁻¹.

B10: VPH777 Fab (Fab, V domains shown)
VH: B1 VH with F33Y, R54S, R65S, T102A
VL: B1 VL with M4L, N92S
notes: Fab
In assay [1], B10 had a dissociation constant Kd of 0.73 nM, a koff of 0.0001 s⁻¹ and an on-rate constant (kon) of 140000 M⁻¹ s⁻¹.

B11: UER756 Fab (Fab, V domains shown)
VH: B1 VH with F33Y, R54S, R65S, F106A
VL: B1 VL with M4L, N92S
notes: Fab
Consider B11, for which, in assay [1], the equilibrium dissociation constant (Kd) is 0.81 nM, the koff stood at 0.00011 s⁻¹ and the kon was found to be 140000 M⁻¹ s⁻¹.

B12: EJT070 Fab (Fab, V domains shown)
VH: B1 VH with F33Y, S53Y, R54S, R65S, T102A
VL: B1 VL with M4L, N92S
notes: Fab
In assay [1], B12 yielded a Kd of 0.82 nM, a koff of 0.0002 s⁻¹ and a kon of 250000 M⁻¹ s⁻¹.

B13: IFQ920 Fab (Fab, V domains shown)
VH: B1 VH with T102A
VL: B1 VL with F94A
notes: Fab
As to B13, in assay [1], the Kd came out at 8.28 nM, the off-rate (koff) was found to be 0.00233 s⁻¹ and the kon was 281000 M⁻¹ s⁻¹.

B14: RZL961 (antibody, human IgG1, V domains shown)
VH: VQLVQSGAEVKKPGASVKVSCKASGYTFTNFYIHWVRQAPGQGLEWMGSIYPQYGITAYNQKFKDRVTMTVDTSTSTAYMELRSLRSDDTAVYYCARGYSYAMDYWGQGTTVTVSS
VL: DIQMTQSPSSVSASVGDRVTITCSASQGISGDLNWYQQKPGKAPKLLIYHTSQLHSDVPSRFSGSGSGTDFTLTISSLQPEDFATYYCQGYSKDLLTFGGGTKLEIK
notes: human IgG1
In assay [3], B14 returned an equilibrium dissociation constant (Kd) of 0.785 nM, a koff of 0.000436 s⁻¹ and a kon of 555000 M⁻¹ s⁻¹. In assay [4], this molecule came in with a Kd of 1.21 nM, a koff of 0.000536 s⁻¹ and an on-rate (kon) of 444000 M⁻¹ s⁻¹.

B15: ZTD928 (antibody, human IgG1, V domains shown)
VH: B14 VH with Q53N
VL: B14 VL with L95T
notes: human IgG1
As for B15, in assay [3], the Kd amounted to 0.502 nM, the koff turned out to be 0.000243 s⁻¹ and the kon came to 483000 M⁻¹ s⁻¹. In assay [4], this molecule yielded a Kd of 0.801 nM, a koff of 0.00028 s⁻¹ and a kon of 349000 M⁻¹ s⁻¹.

B16: YCF391 (antibody, human IgG1, V domains shown)
VH: B14 VH with I50T, Q53N
VL: B14 VL
notes: human IgG1
In assay [3], B16 came in with an equilibrium dissociation constant (Kd) of 0.664 nM, a koff of 0.00026 s⁻¹ and a kon of 391000 M⁻¹ s⁻¹. In assay [4], this molecule returned a Kd of 0.808 nM, a koff of 0.000336 s⁻¹ and a kon of 416000 M⁻¹ s⁻¹.

B17: WAZ460 (antibody, human IgG1, V domains shown)
VH: B14 VH with Q53N
VL: B14 VL with S24R
notes: human IgG1
Take B17: in assay [3], the Kd worked out at 0.331 nM, the koff was determined as 0.00016 s⁻¹ and the kon was 485000 M⁻¹ s⁻¹. In assay [4], the Kd was 0.515 nM, the koff stood at 0.000202 s⁻¹ and the kon stood at 393000 M⁻¹ s⁻¹.

B18: 21A08Ap1 (antibody, human IgG1, V domains shown)
VH: EVQLLESGGGLVQPGGSLRLSCAASGFTFSINAMTWVRQAPGKGLEWVSTISGSGFSTYYADSLKGRFTISRDNSKNTLYLQMNSLRAEDTAVYYCAKEVYGDYWGQGTLVTVSS
VL: RSVLTQPPSASGTPGQRVSISCSGASSNIGSQSVFWYQQLPGTAPKLLIYSNNQRPSGVPDRFSGSKSGTSASLAISGLRSEDEADYYCAAWDDSLSIWVFGGGTKLTVL
notes: human IgG1; also called anti-PD-1 antibody clone 21A08Ap1
In assay [5], B18 returned a Kd of 1.25 nM, a koff of 0.000259 s⁻¹ and a kon of 206000 M⁻¹ s⁻¹. Further, in assay [6], the equilibrium dissociation constant (Kd) amounted to 1.27 nM, the koff worked out at 0.00011 s⁻¹ and the kon was 86800 M⁻¹ s⁻¹.

B19: JZW468 (antibody, human IgG1, V domains shown)
VH: B18 VH
VL: B18 VL with S95Q
notes: human IgG1
For the molecule B19, in assay [5], the dissociation constant (Kd) was 0.959 nM, the koff was determined as 0.00029 s⁻¹ and the kon amounted to 302000 M⁻¹ s⁻¹. In addition, in assay [6], the Kd is 0.631 nM, the koff was found to be 9.2e-05 s⁻¹ and the kon was found to be 146000 M⁻¹ s⁻¹.

B20: JOH712 (antibody, human IgG1, V domains shown)
VH: B18 VH
VL: B18 VL with L40H
notes: human IgG1
In assay [5], B20 registered a Kd of 1.11 nM, an off-rate (koff) of 0.000252 s⁻¹ and a kon of 227000 M⁻¹ s⁻¹. In assay [6], this molecule registered a Kd of 0.546 nM, a koff of 8.88e-05 s⁻¹ and a kon of 163000 M⁻¹ s⁻¹.

B21: FHX509 (antibody, human IgG1, V domains shown)
VH: B18 VH
VL: B18 VL with I98A
notes: human IgG1
For B21, in assay [5], the dissociation constant (Kd) was 0.699 nM, the off-rate constant (koff) came to 0.000239 s⁻¹ and the kon is 341000 M⁻¹ s⁻¹. For the same molecule, in assay [6], the Kd amounted to 0.694 nM, the koff turned out to be 8.38e-05 s⁻¹ and the kon turned out to be 121000 M⁻¹ s⁻¹.

B22: KOW427 (antibody, human IgG1, V domains shown)
VH: B18 VH
VL: B18 VL with L48G
notes: human IgG1
With B22, in assay [5], the Kd turned out to be 1.27 nM, the koff was determined as 0.000296 s⁻¹ and the association rate constant (kon) was found to be 233000 M⁻¹ s⁻¹. In assay [6], this molecule returned a Kd of 0.586 nM, a koff of 7.97e-05 s⁻¹ and an on-rate constant (kon) of 136000 M⁻¹ s⁻¹.

B23: GZZ692 (antibody, human IgG1, V domains shown)
VH: B18 VH
VL: B18 VL with I49G
notes: human IgG1
In the case of B23, in assay [5], the Kd was 4.5 nM, the koff is 0.00153 s⁻¹ and the kon came to 340000 M⁻¹ s⁻¹. In assay [6], this molecule registered a Kd of 1.41 nM, a koff of 0.000209 s⁻¹ and a kon of 148000 M⁻¹ s⁻¹.

B24: GDY271 (antibody, human IgG1, V domains shown)
VH: B18 VH
VL: B18 VL with F35Y
notes: human IgG1
In the case of B24, in assay [5], the Kd is 6.38 nM, the koff was 12.2 s⁻¹ and the association rate constant (kon) came out at 1.91e+09 M⁻¹ s⁻¹. In assay [6], this molecule had a Kd of 3.56 nM, a koff of 0.0013 s⁻¹ and a kon of 364000 M⁻¹ s⁻¹.
